According to patent publication US20070148130A1:

How the values were obtained:
MPRN-12 = tested on: T1, MPRN-12
T1 sequence: NVKGTEDSG

MPRN-20 = tested on: T2, MPRN-20
T2 sequence: KGTEDSGTT

Substance: partially purified native TRRE (pooled Phenyl Sepharose fractions with the highest specific activity, from stimulated THP-1 cells)
- TNF-R peptide cleavage activity (FRET assay) of Phenyl Sepharose elution fractions (MPRN-12): The leading edge of the protein peak was found to give the highest FRET signal (shown here for MPRN-12)
- specific activity in the FRET peptide cleavage assay (MPRN-12): a specific activity of 378 FU/µg in the FRET assay using the MPRN-12 substrate
- TNF-R peptide cleavage activity (FRET assay) of Phenyl Sepharose elution fractions (MPRN-20): Fractions 4-6 but not 7-10 also cleaved MPRN-20
